From US20070207158A1 (BOARD OF REGENTS OF THE UNIVERSITY OF OKLAHOMA, published 2007)

B1: L-methioninase from Pseudomonas putida (enzyme)
chain: MRDSHNNTGFSTRAIHHGYDPLSHGGALVPPVYQTATYAFPTVEYGAACFAGEEAGHFYSRISNPTLALLEQRMASLEGGEAGLALASGMGAITSTLWTLLRPGDELIVGRTLYGCTFAFLHHGIGEFGVKIHHVDLNDAKALKAAINSKTRMIYFETPANPNMQLVDIAAVVEAVRGSDVLVVVDNTYCTPYLQRPLELGADLVVHSATKYLSGHGDITAGLVVGRKALVDRIRLEGLKDMTGAALSPHDAALLMRGIKTLALRMDRHCANALEVAQFLAGQPQVELIHYPGLPSFAQYELAQRQMRLPGGMIAFELKGGIEAGRGFMNALQLFARAVSLGDAESLAQHPASMTHSSYTPQERAHHGISEGLVRLSVGLEDVEDLLADIELALEACA
notes: also called free L-methioninase
B2: ATF-methioninase fusion protein (other)
chain: SNELHQVPSNCDCLNGGTCVSNKYFSNIHWCNCPKKFGGQHCEIDKSKTGSGSGSRDSHNNTGFSTRAIHHGYDPLSHGGALVPPVYQTATYAFPTVEYGAACFAGEEAGHFYSRISNPTLALLEQRMASLEGGEAGLALASGMGAITSTLWTLLRPGDELIVGRTLYGCTFAFLHHGIGEFGVKIHHVDLNDAKALKAAINSKTRMIYFETPANPNMQLVDIAAVVEAVRGSDVLVVVDNTYCTPYLQRPLELGADLVVHSATKYLSGHGDITAGLVVGRKALVDRIRLEGLKDMTGAALSPHDAALLMRGIKTLALRMDRHCANALEVAQFLAGQPQVELIHYPGLPSFAQYELAQRQMRLPGGMIAFELKGGIEAGRGFMNALQLFARAVSLGDAESLAQHPASMTHSSYTPQERAHHGISEGLVRLSVGLEDVEDLLADIELALEACA
notes: also called FP

Legend:
[1] = molecular target: T1, urokinase receptor on MCF-7 human breast cancer cells (human, UniProt Q03405 23-305); experiment: immunocytochemistry of MCF-7 cells with anti-L-methioninase antibody, 18 h treatment
T1 construct: whole, on cells; also called uPA receptor; urokinase receptors

[2] = molecular target: T1, urokinase receptor on MCF-7 human …; experiment: displacement assay on MCF-7 cells (summary of Example 1)

T1 sequence (Q03405 23-305): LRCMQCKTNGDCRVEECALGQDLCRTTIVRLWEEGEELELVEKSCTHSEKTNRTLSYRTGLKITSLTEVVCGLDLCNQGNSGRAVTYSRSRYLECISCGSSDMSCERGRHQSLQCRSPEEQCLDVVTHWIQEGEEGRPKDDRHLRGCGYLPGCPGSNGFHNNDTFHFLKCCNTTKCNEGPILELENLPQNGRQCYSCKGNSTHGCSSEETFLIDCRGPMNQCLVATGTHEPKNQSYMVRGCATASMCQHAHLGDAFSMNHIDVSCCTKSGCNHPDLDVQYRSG

Binder | binding result [1] | binding result [2]
B1 | no binding (tested: 10^-6 M) | 
B2 |  | binds
